This is an account of results in article PMC8440396 (Nature cell biology, 2021).

Assay in all cases: pull-down
For one assay, the target named is Flag-ERK1 (human, UniProt P27361 1-379).
The next assay addresses Flag-ERK1^K302R (human, UniProt P27361 1-379, K302R).
Assay [1] addresses T1, Flag-CYLD^4A (K767A/K768A/L773A/L775A) (human, UniProt Q9NQC7 1-956, K767A | K768A | L773A | L775A).
T1 sequence: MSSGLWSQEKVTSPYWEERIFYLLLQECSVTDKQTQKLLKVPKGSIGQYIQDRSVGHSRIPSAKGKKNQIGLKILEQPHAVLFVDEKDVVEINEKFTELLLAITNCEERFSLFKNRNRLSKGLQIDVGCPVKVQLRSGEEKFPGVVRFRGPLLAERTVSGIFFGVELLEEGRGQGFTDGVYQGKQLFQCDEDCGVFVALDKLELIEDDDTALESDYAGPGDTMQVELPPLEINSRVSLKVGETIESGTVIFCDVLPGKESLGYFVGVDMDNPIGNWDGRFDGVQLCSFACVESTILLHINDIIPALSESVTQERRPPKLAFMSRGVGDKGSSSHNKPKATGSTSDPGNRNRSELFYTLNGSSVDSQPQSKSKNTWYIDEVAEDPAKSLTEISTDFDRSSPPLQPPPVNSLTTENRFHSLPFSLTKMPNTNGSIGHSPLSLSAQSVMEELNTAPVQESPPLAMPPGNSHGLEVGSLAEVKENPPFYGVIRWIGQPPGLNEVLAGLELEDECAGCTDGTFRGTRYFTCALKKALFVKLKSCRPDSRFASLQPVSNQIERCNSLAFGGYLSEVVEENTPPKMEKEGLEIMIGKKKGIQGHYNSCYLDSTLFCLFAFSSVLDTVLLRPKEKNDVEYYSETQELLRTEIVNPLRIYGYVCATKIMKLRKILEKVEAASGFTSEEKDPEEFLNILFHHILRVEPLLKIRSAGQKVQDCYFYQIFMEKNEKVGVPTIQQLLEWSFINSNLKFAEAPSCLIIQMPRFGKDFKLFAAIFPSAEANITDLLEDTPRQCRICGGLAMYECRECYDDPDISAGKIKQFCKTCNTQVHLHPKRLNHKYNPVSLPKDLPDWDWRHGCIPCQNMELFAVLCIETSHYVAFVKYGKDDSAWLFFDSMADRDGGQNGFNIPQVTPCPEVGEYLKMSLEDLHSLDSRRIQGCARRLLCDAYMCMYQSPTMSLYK

The next assay addresses T2, Flag-TRIM15 (human, UniProt Q9C019 1-465).
T2 sequence: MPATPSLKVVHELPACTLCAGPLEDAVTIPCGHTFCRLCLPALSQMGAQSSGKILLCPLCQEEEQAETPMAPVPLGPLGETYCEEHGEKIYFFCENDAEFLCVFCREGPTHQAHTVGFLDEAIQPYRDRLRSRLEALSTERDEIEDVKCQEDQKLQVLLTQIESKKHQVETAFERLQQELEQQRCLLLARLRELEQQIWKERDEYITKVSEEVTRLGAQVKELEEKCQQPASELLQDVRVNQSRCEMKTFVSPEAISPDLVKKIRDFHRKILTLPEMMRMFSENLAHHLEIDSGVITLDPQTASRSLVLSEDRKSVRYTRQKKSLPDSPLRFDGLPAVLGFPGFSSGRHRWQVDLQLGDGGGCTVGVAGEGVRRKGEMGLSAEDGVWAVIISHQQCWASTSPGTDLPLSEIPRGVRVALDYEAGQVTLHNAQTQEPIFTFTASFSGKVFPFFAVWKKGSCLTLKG

A further assay deals with T3, Flag-CYLD (human, UniProt Q9NQC7 1-956).
T3 sequence: T1 sequence with A767K, A768K, A773L, A775L

Changes are numbered by the printed parent chain.

B1: GST-ELK-1 (aa 307-428) (domain or fragment)
chain: ISQPQKGRKPRDLELPLSPSLLGGPGPERTPGSGSGSGLQAPGPALTPSLLPTHTLTPVLLTPSSLPPSIHFWSTLSPIAPRSPAKLSFQFPSSGSAQVHIPSISVDGLSTPVVLSPGPQKP
As for B1, the binding result in the assay with Flag-ERK1 and with Flag-ERK1^K302R was “binds” in each case.

B2: GST-ERK1 (enzyme)
chain: MAAAAAQGGGGGEPRRTEGVGPGVPGEVEMVKGQPFDVGPRYTQLQYIGEGAYGMVSSAYDHVRKTRVAIKKISPFEHQTYCQRTLREIQILLRFRHENVIGIRDILRASTLEAMRDVYIVQDLMETDLYKLLKSQQLSNDHICYFLYQILRGLKYIHSANVLHRDLKPSNLLINTTCDLKICDFGLARIADPEHDHTGFLTEYVATRWYRAPEIMLNSKGYTKSIDIWSVGCILAEMLSNRPIFPGKHYLDQLNHILGILGSPSQEDLNCIINMKARNYLQSLPSKTKVAWAKLFPKSDSKALDLLDRMLTFNPNKRITVEEALAHPYLEQYYDPTDEPVAEEPFTFAMELDDLPKERLKELIFQETARFQPGVLEAP
As for B2, the binding result (in assay [1]; with Flag-TRIM15; in the assay with Flag-CYLD) was “binds” each time.
